Substitutions are numbered along the chain they refer to.
T1: recombinant human cANGPTL4 (C-terminus fibrinogen-like signaling peptide of angiopoietin-like 4) (human, UniProt Q9BY76 166-406)
T1 construct: also called C-terminus of ANGPTL4
T1 sequence: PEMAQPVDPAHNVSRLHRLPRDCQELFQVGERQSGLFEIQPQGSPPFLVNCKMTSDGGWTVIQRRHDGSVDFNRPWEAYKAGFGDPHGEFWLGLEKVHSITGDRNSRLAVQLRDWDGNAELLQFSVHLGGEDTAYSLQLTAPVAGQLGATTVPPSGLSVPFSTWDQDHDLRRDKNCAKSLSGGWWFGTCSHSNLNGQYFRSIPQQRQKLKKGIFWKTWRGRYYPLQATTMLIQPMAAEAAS

B1: Ab-E, monoclonal rat-anti-human cANGPTL4 antibody (antibody, V domains shown)
VH: EVQLVESGGGLVQPGRSMKLSCAASGFTFSSFAMAWVRQAPTKGLEWVASISYDGGNTYYRDSVKGRFTISRDNAKSSLYLQMDSLRSEDTSTYYCASADLIWWYFDFWGPGTMVTVSS
VL: DIQMTQSPASLSASLEEIVTITCQASQDIGNWLAWYQQKPGKSPQLLIYGSTSLADGVPSRFSGSRSGTQYSLKISRLQVEDIGIYYCQQASSAPPTFGAGTKLELK
B2: Ab-A, monoclonal rat-anti-human cANGPTL4 antibody (antibody, V domains shown)
VH: QVQLKESGPGLMQPSETLSLTCTVSGFSLTTNGVGWVRQPLGKGLVWMGTIWAGGSTNYNSAVQSRLSISRDTSKSQVFLKMNSLQPEDTGTYYCARQPFYYYDGIHYTRGYFDYWGQGVMVTVSS
VL: DVQMTQSPYNLAASPGESVSINCKASKSISKYLAWYQQKLGKANKLLIYDGSTLQSGIPSRFSGSGSGTDFTLTIRSLEPEDFGLYYCQQHNEYPATFGGGTKLELK
B3: Ab-B, monoclonal rat-anti-human cANGPTL4 antibody (antibody, V domains shown)
VH: EVQLVESGGGLVQPGRSLKLSCAASGFTFSNYGMAWVRQTPTKGLEWVASISTGGSDTYYRDSVKGRFTISRDNAKNTQYLQMDSLRSEDTATYYCARQGFTEDTDYWGQGVMVTVSS
VL: DIQMTQSPSFLSASVGDRVTINCKASQNINKYLNWYQQKLGEAPKRLIYNTNNLQTGIPSRFSGSGSGTDYTLTISSLQPEDFATYFCLQHNSFPGTFGGGTKLELK
B4: Ab-C, monoclonal rat-anti-human cANGPTL4 antibody (antibody, V domains shown)
VH: EVQLVDSGGGLVQPGRSLKLSCAASGFTFSNYGMAWVRQIPTKGLEWVASISSGGGNTYYRDSVKGRFTISRDNAKNTQYLQMDSLRSEDTATYYCARDPGITGFDYWGQGVMVTVSS
VL: B3 VL with N53T, G100P, K103T
B5: Ab-D, monoclonal rat-anti-human cANGPTL4 antibody (antibody, V domains shown)
VH: B4 VH with D6E, I40T, S53T, P100S, G101T, I102V, T103D, G104Y
VL: B3 VL with N28K, Y71F, F87C
notes: also called Antibody Ab-D

Assays:
[1] = molecular target: T1, recombinant human cANGPTL4 (C-terminus …); assay: SPR (Reichert 2SPR), purified recombinant human cANGPTL4
Experimental: The kinetic binding parameters and affinity of the purified antibodies was determined by surface plasmon resonance (SPR) using Reichert 2SPR machine (Reichert Technologies) and purified recombinant human cANGPTL4 (Table 2).

[2] = molecular target: T1, recombinant human cANGPTL4 (C-terminus …); assay: direct ELISA of hybridoma supernatants

Row | Binder | Kd [1] | koff [1] | kon [1] | binding result [2]
1 | B1 | 3740 pM | 8.07e-05 s⁻¹ | 21500 M⁻¹ s⁻¹ | –
2 | B2 | – | – | – | binds
3 | B3 | 132 pM | 3.69e-05 s⁻¹ | 269000 M⁻¹ s⁻¹ | –
4 | B4 | 199 pM | 1.35e-05 s⁻¹ | 67800 M⁻¹ s⁻¹ | –
5 | B5 | 480 pM | 3.89e-05 s⁻¹ | 81100 M⁻¹ s⁻¹ | –
